{"source": "patent US20250296994A1", "about": "(SYSMEX, published 2025)", "binders": {"B1": {"name": "15C2 antibody (monoclonal antibody derived from the hybridoma of clone 15C2) (antibody, mouse IgG1, kappa, V domains shown)", "VH": "EVQLQQFGAELVKPGASVKISCKASGYTFTDYNMDWVKQSHGKSLEWIGDINPNYDSSSYNQKFKGKATLTVDKSSSTAYMELRSLTSEDTAVYYCTRSGGTYWGQGTLVTVSA", "VL": "DIQMNQSPSSLSASLGDTITITCHASQNINVWLSWYQQKPGNIPKLLIYKASNLHTGVPSRFSGSGSGTGFSLTISSLQPEDIATYYCQQAQSYPRTFGGGTKLEIKR", "notes": "Mouse IgG1; Used as hybridoma culture supernatant (ELISA) or purified from supernatant (IB, IP); also called anti-Crtac1B antibody; antibody of the present embodiment"}}, "key": {"[1]": {"target": "T1, antigen peptide P3 (BSA conjugate in the primary screening) (human, NH2-PEG6 at the N-terminus; C-terminal amide; disulfide bond between the two cysteine residues; carrier protein (BSA in the screening ELISA, KLH for immunization) conjugated to the N-terminal amino …)", "T1 peptide": "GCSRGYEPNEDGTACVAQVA", "experiment": "primary screening ELISA, BSA-conjugated antigen peptide immobilized, hybridoma culture supernatant", "description": "In order to select hybridomas producing monoclonal antibodies reactive to the antigen peptide, the culture supernatant of each hybridoma was measured by ELISA. In the primary screening, as a positive antigen, a peptide to which BSA was conjugated was used as a carrier protein for each of the antigen peptides P1, P2 and P3. Specific operations were as follows.\nThe positive antigen was diluted with PBS to a concentration of 1 μg/mL. Positive antigen (50 μL) was added to each well of a 96 well plate. Then, the plate was incubated at 4° C. for 17 hours, and a positive antigen was immobilized in the well to obtain an antigen immobilized plate. Each well was washed three times with PBS (250 μL). To each well was added a blocking buffer (250 μL, 0.5% skim milk/PBS) and blocked at room temperature for 1 hour. Culture supernatant (50 μL) of each hybridoma was added to each well, and the cells were incubated at room temperature for 1 hour. Each well was washed three times with PBS (250 μL). An ALP-labeled anti-mouse IgG goat antibody (SBI, product number 1030-04) was diluted 1:2,500 with PBS. A solution (50 μL) of this labeled antibody was added to each well, and the well was incubated at room temperature for 30 minutes. Each well was washed three times with PBS (250 μL). […] The plate was set in a microplate reader, and the emission intensity was measured for each well."}, "[2]": {"target": "T2, recombinant Crtac1B fragment #6 (human, UniProt Q9NQ79 28-606)", "T2 construct": "also called fCrtac1B (1-607)", "T2 sequence": "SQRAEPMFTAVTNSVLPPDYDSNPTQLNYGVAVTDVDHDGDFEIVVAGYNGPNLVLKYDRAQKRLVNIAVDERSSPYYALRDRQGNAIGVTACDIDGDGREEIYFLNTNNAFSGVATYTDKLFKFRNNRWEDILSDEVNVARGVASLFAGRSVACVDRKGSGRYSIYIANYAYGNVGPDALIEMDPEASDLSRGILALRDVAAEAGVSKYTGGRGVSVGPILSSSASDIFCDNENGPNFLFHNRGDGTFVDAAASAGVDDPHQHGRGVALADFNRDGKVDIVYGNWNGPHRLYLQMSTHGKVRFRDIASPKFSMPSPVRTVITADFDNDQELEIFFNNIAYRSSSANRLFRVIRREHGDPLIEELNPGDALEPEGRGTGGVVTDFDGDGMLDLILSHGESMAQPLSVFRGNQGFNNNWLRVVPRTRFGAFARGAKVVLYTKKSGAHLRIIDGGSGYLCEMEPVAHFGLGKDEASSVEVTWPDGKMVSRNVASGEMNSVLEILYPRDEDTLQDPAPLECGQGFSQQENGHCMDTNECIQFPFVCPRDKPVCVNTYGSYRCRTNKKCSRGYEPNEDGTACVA", "experiment": "antigen immobilized ELISA, hybridoma culture supernatant, color development at 655 nm same as plate without antigen", "description": "A positive antigen (50 μL) and a negative control (50 μL) were added to each well of a 96 well plate, respectively. Then, the plate was incubated at 4° C. overnight, and the positive antigen and the negative control were immobilized in the well to obtain an antigen immobilized plate. Each well was washed twice with a washing solution (250 μL, 0.05% Tween (registered trademark) 20/20 mM potassium phosphate buffer (pH 7.4), 150 mM NaCl). To each well was added a blocking buffer (250 μL, 5% skim milk/20 mM potassium phosphate buffer (pH 7.4), 150 mM NaCl), and blocked at room temperature for 90 minutes. Culture supernatant (50 μL) of each hybridoma selected by primary screening was added to each well, and the cells were incubated at 37° C. for 1 hour. Each well was washed three times with a washing solution (250 μL). The HRP-labeled anti-mouse IgG antibody (MBL, product number 330) was diluted 1:1,000 with dilution buffer II (1% skim milk/20 mM potassium phosphate buffer (pH 7.4), 150 mM NaCl). A solution (50 μL) of this labeled antibody was added to each well, and the well was incubated at 37° C. for 1 hour. Each well was washed five times with a washing solution (250 μL). Chemical chromogenic substrate solutions (Bio-Rad, TMB Peroxidase EIA Substrate Kit) were added to respective wells at 50 μL, and the plate was allowed to stand at room temperature under shading for 30 minutes. The plate was set in a microplate reader (Thermo Fisher Scientific, Varioskan (registered trademark) Flash), and the color development intensity at 655 nm was measured for each well.\nReactivity of the monoclonal antibody contained in the culture supernatant of the hybridomas of clones 1B4 and 15C2 to the antigen was confirmed by ELISA using the 7 recombinant Crtac1B fragments described above. A specific operation was the same as that of the antigen immobilized ELISA method of Example 1. For comparison, ELISA was performed in the same manner using a 96 well plate in which no antigen was immobilized.\nIn addition, as to these monoclonal antibodies, the color development intensity when the recombinant Crtac1B fragments of #6 and #7 were used was substantially the same as that when a plate without immobilizing the antigen was used."}}}
{"binder": "B1", "values": [{"measurement": "binding result", "setting": "[1]", "result": "binds"}, {"measurement": "binding result", "setting": "[2]", "result": "no binding"}]}
